Where a chain is given by its changes, count along the chain named.
B1: ADI-41319 (antibody, V domains shown)
VH: QVQLQESGPGLVKPSQTLSLTCTVSGGSISSGDYYWSWIRQPPGKGLEWIGYIFYSGTTYYNPSLKSRVTISLDTSQNQFSLKLSSVTAADTAVYYCARDGDEVDYVWGTRRYLDSWGRGTLVTVSS
VL: EIVLTQSPGTLSLSPGERATLSCRASQSVSSRYLAWYQQKPGQAPRLLIHGASSRATGIPDRFSGSGSGTDFTLTISRLEPEDFAVYYCLQYGSLPKTFGQGTKVEIK
B2: ADI-41342 (antibody, V domains shown)
VH: QVQLVQSGAEVKKPGSSVKVSCKASGGTLTSYGVSWVRQAPGQGLEWMGGIIPIFGTVDYAQKFQGRVTITADEPTSTAYMELSSLTSDDTAVYYCARDPWVSGPVEFYYYFDVWGRGTLVTVSS
VL: B1 VL with E1D, Q6E, G9A, V29I, S30N, S31N, H50F, L90Q, L95T, K97P
B3: ADI-41318 (antibody, V domains shown)
VH: EVQLLESGAEVKKPGSSVRVSCKAFGGTFSSYAFSWVRQAPGQGLEWMGGITPMFGTENYAPNFQGRVTITADKLTTTVYMELSRLRSEDSAVYYCAREGGRLGTTMGAFDMWGQGTMVTVSS
VL: DIRLTQSPSSLSASVGDRVTITCRASHGISSALAWYQQRPGRVPQVLIFHASTLESGVPSRFSGSGSGTDFTLTISSLQPEDFATYYCQQFNSYPYTFGQGTKVEIK
B4: ADI-41314 (antibody, V domains shown)
VH: QVQLVQSGAEVKKPGSSVKVSCKAFGGIFSSYAISWVRQAPGQGLEWMGGIIPIFGTTKYAQKFQGRVTITADKSTSTVYMEVSSLRFEESAVYFCARAYCSGGTWYGGADYWGQGTLVTVSS
VL: QSVLTQPPSVSVSPGQTARITCSGDVLPKQYAYWYQQKPGQAPLLVMYKDTERPSGIPERFSGSSSVTAVTLTISGVQAEDEADYYCQSADSTQELFGGGTKLTVL
B5: ADI-41324 (antibody, V domains shown)
VH: EVQLVESGGGLVQPGGSLRLSCAASGFTVSNNYMRWVRQAPGKGLEWVSVIYSSGSTDYADSVKGRFTISRDNSKNTLYLQMNSLRAEDTAVYYCARERTLFYYDSSGFFDYWGQGTLVTVSS
VL: ETTLTQSPGTLSLSPGERATLSCRASQSVDSSYLAWYQQKPGQAPRLLIYGASNRATGIPDRFSGSGSGTDFTLTISRLEPEDFAVYYCQQYGRSLTFGGGTKLEIK
B6: ADI-41340 (antibody, V domains shown)
VH: QVQLVQSGAEVKTPGSSVKVSCKASGGTFRSYPITWVRQAPGQGLEWMGTVIPVFDTVNYAPKFQGRVSITADESTNTAYMELSSLRSDDSAVYYCARDLGWLRPMTTVTSPHFDYWGQGTLVTVSS
VL: QSVLTQPASVSGSPGQSITISCTGTSSDVGGYDFVSWYQQHPGKAPKLMISEVTDRPSGVSNRFSGSKSGNTASLTISGLQAEDEADYYCTSYTSSRTYVFGTGTKLTVL
B7: ADI-41317 (antibody, V domains shown)
VH: EVQLVESGGGLVQPGGSLRLSCEASRFKFSTFWMAWVRQAPGKGLEWVANIKQDGSETYYLDSVKGRFTISRDNAKNSLFLQMKSLRAEDTAVYYCAGLWWGDLENWFDPWGQGTLVTVSS
VL: QSVLTQPPSVSGAPGQRVTISCTGSSSNLGTGFDVHWYRQLPGTAPQLLIYGSTNRPSGVPDRFSGSKYGTSASLAITGLQAEDEADYYCQSYDSNLRAYVFGTVTKVTVL
B8: ADI-41349 (antibody, V domains shown)
VH: EVQLLESGGGLVQPGRSLRLSCTGSGFTFGDYAMNWVRQAPGKGLEWVGLIRSKDYGGTTEFAASLKGRLTISRDDSKSIAYLQMHSLKTEDSAVYYCTRAHLTDYTDINGYQYYFDYWGQGSPVTVSS
VL: DIQMTQSPSSLSASVGDRVTITCQASQDISNFLNWYQQRPGKAPKLLIHDASNLETGVPSRFSGSGSRTEFTFTISSLQPEDIGTYYCQHYDNFPYTFGQGTKVEIK
B9: ADI-41343 (antibody, V domains shown)
VH: EVQLVESGGGLVKPGGSLRLSCAASGFTFSSYYMNWVRQAPGKGLEWVSSISGGSSYISYADSVKGRFTISRDNAKNSLYLQMNSLRAEDTAVYYCARVDTPMVRGYYFDYWGQGTLVTVSS
VL: QSVLTQPPSVSGAPGRRVTISCTGSSSNIGAGYDVHWYQQLPGTAPKLLIFANSNRPSGVPDRFSGSKSGTSASLAITGLQAEDEADYYCQSYDSSLSGSVFGGGTKVTVL
B10: ADI-41344 (antibody, V domains shown)
VH: EVQLVESGGGLVKPGGSLRLSCAASGSSFSSYYMNWVRQAPGKGLEWVSSISSSSTYIDYADSVKGRFTISRDNAKNSLFLQMNSLRAEDTAVYYCARVSSPMIRGYYLDYWGQGTLVTVSS
VL: B9 VL with S2P, R16Q, L49V, F51H, A52G, A82G, V108L
B11: ADI-41341 (antibody, V domains shown)
VH: QVQLVQSGAEVKKPGSSVKVSCKASGGTFSSYATHWVRQAPGQGLEWMGGIIPIFGRATYAQKFQGRVTISADESTSTAYMELSSLRSEDTAVYYCARGRDDRSGDHIAFLYHYGMDVWGQGSTVTVSS
VL: QSVLTQPPSVSAAPGQKVSISCSGSSSNIGINHASWYQHLPGTAPKLLIYDNNKRPSGIPDRFSGSKSGTSATLGISGLQTGDEAAYYCGTWDTGLSAVVFGGGTKLTVL
B12: ADI-41320 (antibody, V domains shown)
VH: QVQLVQSGVEVKKPGESLKISCRGFGYSAYNYWIAWVRQKPGKGLEYMGTIYLDDSDTIYSPSFQGEVTISADRSINTAYLQWNSLKASDTANYYCARQMDFYFDVWGRGTLVTVSS
VL: QSVLTQPPSVSVSPGQTARITCSGDPLPRESAYWYQQKPGQAPVVVIFNDIERPLGIPARFSGSRSGTTVTLTISGAQAEDEADYYCQSADSRKTFVFGPGTKLTVL
B13: ADI-41322 (antibody, V domains shown)
VH: QVQLVQSGAEVKKPGSSVRVSCKASGGSFSSYATSWVRQAPGQGLEWMGGIIPMYDAVNYAQKFQGRVTITADESTTTAYMELSSLRSEDTAVYYCARSSGYTGTNFFDYWGQGTLVTVSS
VL: DIQMTQSPSSVSASVGDRVTITCRASQDISSWLAWYQQKPGKAPKLLIYTASSLQSGVPSRFSGSGSGTDFTLTISRLQPEDFATYYCQQANSFPRVTFGGGTKVEIK
B14: ADI-41316 (antibody, V domains shown)
VH: QVQLVQSGGGVVQPGRSLRLSCAASGFTFNNYGMHWVRQAPGKGLEWVAVLSFDGINKYYADSARGRFTISRDNSKNTLYLQMNSLRAEDTALYYCAKDRQEYSSGWTHDACDIWGQGTMVTVSS
VL: EIVMTQSPATLSVSPGERATLSCRASQNVNNNLAWYQQNPGQAPRLLIFGASTRATGIPARFSGSGSGTEFTLTISSLQSEDFAVYYCQQYNNWPRTFGQGTKLEIK
B15: ADI-41315 (antibody, V domains shown)
VH: EVQLLESGPGLVKPSETLSLTCAVSGGSISNYYWSWIRQPPGKGLEWIAYISYSGTTNYNPSLESRVTISVDTSKNQFSLKLNSVTAADTAVYYCARHEFLVLPDVWGQGTLVTVSS
VL: ETTLTQSPGTLSLSPGERATLSCRASQSVSSTFLAWYQQKPGQAPRLLIYAASSRATGIPDRFSGSGSGTDFTLIISRLEPEDFAVYYCQQYRSSPFSFGPGTKVEIK
B16: ADI-41347 (antibody, V domains shown)
VH: EVQLVESGPGLVKPSGTLSLTCAVSGGSVSSDNWWSWVRQPPGKGIEWIGEIYPSGGTNYNPSLNSRVTISVDKSKNQFSLKLNSVTAADTAIYYCARAPFDSSGYHSNSVWGQGTLVTVSS
VL: ETTLTQSPLSLPVTPGEPASISCRSSQSLLHSNGHNYLDWYVQKPGQSPQLLIYLSSNRASGVPDRFSGSGSGTDFTLRISRVEAEDVGVYYCMQPLQTPQTFGQGTKVEIK
B17: ADI-41348 (antibody, V domains shown)
VH: QVQLQESGPGLVKPSQTLSLTCAVSGGSISSGGYYWSWIRQHPGKGLEWIGYIYYSGSTYYNPSLKSPVTISVDTSKNQFSLKLTSVTAADTAVYYCARGDYYFDGSGRTTAAFDIWGQGTMVTVSS
VL: DIQVTQSPSSLSASVGDRVTITCRASQSISTFLNWYQQKPGRAPKLLIYDASNLQSGVPSRVSGSGSGTDFTLTISSLHPEDFATYYCQQSYTTPYTFGQGTKVDIK
B18: ADI-41323 (antibody, V domains shown)
VH: EVQLLESGGGVVRPGGSLRLSCAASGFTFDDYAMGWVRQAPGKGLEWVSGITWNAGSTAYAGSVKGRFTISRDNAKNSLFLQMNSLRAEDTAFYLCARHVDSSGPVARHFDYWGQGTLVTVSS
VL: NFMLTQPHSVSESPGKTVTISCTRSSGSIARNYVQWYQQRPGSAPTIVIYEDNQRPSGVPDRFSGSIDSSSNSASLTISGLKTEDEADYYCQSYDPSNVVFGGGTKLTVL
B19: ADI-41345 (antibody, V domains shown)
VH: EVQLVQSGAEVRKPGESLKISCKGSGYNFASYWIAWVRQMPGKGLEWMGIIFPGDSDTRYSPSFQGQVTISVDKSISTAYLQWSSLKASDTAIYYCATSKYTFGYLDWGQGTLVTVSS
VL: B18 VL with R31S, I47T, P96T, V99Q, G103T, L107V
B20: ADI-41346 (antibody, V domains shown)
VH: QVQLVQSGPEVKKPGESLKISCTLSASGLTTYWIGWVRQMPAKGLEWMGIIFPGDSDTRYSPSFQGQVTISADKSTNTAYLQWSGLKASDTAIYYCATLQTPVTGLDQWGQGTLVTVSS
VL: B18 VL with S28N, N32S, I47T, Y50H, N53D, S69T, V99Y, G103T, L107V
B21: ADI-41467 (antibody, V domains shown)
VH: EVQLVESGGGLVKPGGSLRLSCAASGFSFSSYNMNWVRQAPGKGLEWVSSISGGSSFVNYADSVKGRFTISRDNAKNSLYLQMSSLKAEDTAIYYCARDPVYCSAASCSAYFDSWGQGSLVTVSS
VL: QSVLTQPPSVSGAPGQRVTISCTGSSSNIGAGYDVHWYQQLPGTAPKLLIYGNNNRPSGVPDRFSGFKSGSSASLAITGLQAEDEADYYCQSYDIGLSDSHVVFGGGTQLTVL

Biological target: RSV F on RSV-A2 virus (Respiratory syncytial virus (RSV-A2))
Test: cell-based or functional assay

Binder	Neutralization IC50 (RSV subtype A) [µg/mL]
B1	> 25
B2	> 25
B3	> 25
B4	> 25
B5	> 25
B6	> 25
B7	4.66
B8	> 25
B9	0.177
B10	0.0637
B11	> 25
B12	> 25
B13	> 25
B14	> 25
B15	> 25
B16	> 25
B17	0.0765
B18	> 25
B19	> 25
B20	> 25

Biological target: RSV F on RSV-A2 virus (Respiratory Syncytial Virus (RSV-A2), UniProt P03420 26-574)
Test: cell-based or functional assay

Binder	Neutralization IC50 (RSV subtype A) [µg/mL]
B21	> 25
